# In patent US20030049702:
# T1: in vitro translated FADD (from pcDNA3-Flag-FADD), Q13158
# T1 chain: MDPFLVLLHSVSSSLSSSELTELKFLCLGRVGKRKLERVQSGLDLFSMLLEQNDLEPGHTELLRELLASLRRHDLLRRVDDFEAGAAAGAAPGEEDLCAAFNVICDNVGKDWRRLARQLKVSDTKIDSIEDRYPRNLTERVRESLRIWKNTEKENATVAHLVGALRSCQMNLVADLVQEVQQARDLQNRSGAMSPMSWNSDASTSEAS
# Columns and labels:
# [1] = biological target: T1, in vitro translated FADD (from …)
# [2] = biological target: DAP3-His6
protein,measurement,setting,value
in vitro translated pro-Casp8 (from pcDNA3Flag-pro-Casp8) (protein) MDFSRNLYDIGEQLDSEDLASLKFLSLDYIPQRKQEPIKDALMLFQRLQEKRMLEESNLSFLKELLFRINRLDLLITYLNTRKEEMERELQTPGRAQISAYRVMLYQISEEVSRSELRSFKFLLQEEISKCKLDDDMNLLDIFIEMEKRVILGEGKLDILKRVCAQINKSLLKIINDYEEFSKERSSSLEGSPDEFSNGEELCGVMTISDSPREQDSESQTLDKVYQMKSKPRGYCLIINNHNFAKAREKVPKLHSIRDRNGTHLDAGALTTTFEELHFEIKPHDDCTVEQIYEILKIYQLMDHSNMDCFICCILSHGDKGIIYGTDGQEAPIYELTSQFTGLKCPSLAGKPKVFFIQACQGDNYQKGIPVETDSEEQPYLEMDLSSPQTRYIPDEADFLLGMATVNNCVSYRNPAEGTWYIQSLCQSLRERCPRGDDILTILTEVNYEVSNKDDKKNMGKQMPQPTFTLRKKLVFPSD,caspase-8 activity (cleavage of Ac-IETD-AFC) in vitro,[1],˜3-fold increase in caspase-8 activity
same,caspase-8 activity (cleavage of Ac-IETD-AFC) in vitro,[2],increased protease activity by ˜5-fold
same,"caspase-8 activity (cleavage of Ac-IETD-AFC) in vitro, DAP3 and FADD added together",[2],˜10-fold increase in caspase-8 activity
